Sequences and labels used below:
B2: soluble human ICAM-1/CD54 (receptor)
chain: QTSVSPSKVILPRGGSVLVTCSTSCDQPKLLGIETPLPKKELLLPGNNRKVYELSNVQEDSQPMCYSNCPDGQSTAKTFLTVYWTPERVELAPLPSWQPVGKNLTLRCQVEGGAPRANLTVVLLRGEKELKREPAVGEPAEVTTTVLVRRDHHGANFSCRTELDLRPQGLELFENTSAPYQLQTFVLPATPPQLVSPRVLEVDTQGTVVCSLDGLFPVSEAQVHLALGDQRLNPTVTYGNDSFSAKASVSVTAEDEGTQRLTCAVILGNQSQETLQTVTIYSFPAPNVILTKPEVSEGTEVTVKCEAHPRAKVTLNGVPAQPLGPRAQLLLKATPEDNGRSFSCSATLEVAGQLIHKNQTRELRVLYGPRLDERDCPGNWTWPENSQQTPMCQAWGNPLPELKCLKDGTFPLPIGESVTVTRDLEGTYLCRARSTQGEVTRKVTVNVLSPRYE
notes: also called sICAM-1; SICAM-1

In assay [1] the target is B2. The experiment in a line: ELISA: immobilized monomeric CH2 domain, biotinylated sICAM-1 probe (FIG. 4B).
Method: (§1) Experiments represent a minimum of triplicate wells. Statistical analysis was done using the Student's T-test.
First, fragment domain analysis was performed. […] Briefly, plates were coated with 100 μL of 2.5 μg/mL of full length IgG1 antibody or fragments for 1 hour at room temperature in 0.05 M carbonate buffer. Plates were washed in phosphate buffered saline (PBS) plus 0.1% tween-20 (PBS-T) and blocked with 200 uLs of PBS plus 1% BSA. […] Plates were then washed three times with PBS-T, and quantified using TMB colorimetric substrate (Pierce). Reactions were stopped using 0.1N H₂SO₄ and A450 quantitated using a Varioskan plate reader.
Assay [2] deals with T1, human serum albumin (human, UniProt P02768 25-609).
T1 construct: also called HSA
Put plainly: ELISA: immobilized control protein, biotinylated sICAM-1 probe (FIG. 1B). (ELISA stands for enzyme-linked immunosorbent assay.)
From the text: as §1

B1: secreted recombinant monomeric heavy chain CH2 domain (other, human, UniProt P01857 114-223, looked up)
chain: APELLGGPSVFLFPPKPKDTLMISRTPEVTCVVVDVSHEDPEVKFNWYVDGVEVHNAKTKPREEQYNSTYRVVSVLTVLHQDWLNGKEYKCKVSNKALPAPIEKTISKAK
notes: domain: CH2
Turning to B1, the binding result in assay [1] is listed as “no binding (tested: 0.5 µg/mL biotinylated sICAM-1)”.
In the case of B2, in assay [2], the binding result is “no binding (tested: 5 µg/mL biotinylated sICAM-1)”.

(Values after US20260098858A1 (NAVROGEN, published 2026).)
